Measurements as given in patent JP2023092810A (dated 2023).
Substitutions are numbered along the chain they refer to. In names and notes the source's numbering stands.

B1: OKT3 scFv (scFv, V domains shown)
VH: QVQLVQSGGGVVQPGRSLRLSCKASGYTFTRYTMHWVRQAPGKGLEWIGYINPSRGYTNYNQKVKDRFTISRDNSKNTAFLQMDSLRPEDTGVYFCARYYDDHYSLDYWGQGTPVTVSS
notes: Made in E. coli; also called OKT3 scFv(コントロール); 変異導入前のOKT3 scFv; not shown: linker, VL of OKT3 (OL) and any tag
B2: OKT3 scFv-D65A/D82aN (scFv, name in Kabat numbering, V domains shown)
VH: B1 VH with D66A, D84N
notes: not shown: linker, VL of OKT3 (OL) and any tag
B3: OKT3 scFv-D65N/D82aN (scFv, name in Kabat numbering, V domains shown)
VH: B1 VH with D66N, D84N
notes: as for B2

The binders below were run against プロテインA (rProtein A Sepharose Fast Flow) (UniProt P38507 37-327) (assay: rProtein A Sepharose Fast Flow column, fractions on SDS-PAGE).

Binder | binding result
B1 | no binding
B2 | no binding
B3 | no binding
